Key:
[1] = test system: T1, SegB (SegBSs) (Saccharolobus (Sulfolobus) solfataricus P2), ORF:2e81311c; assay: DNase I footprinting; conditions: EMSA and footprint: 10 mM Tris-HCl pH 7.5, 50 mM KCl, 1 mM DTT, 5 mM MgCl2, 2.5% glycerol, 0.05% NP-40, 1 ug poly(dI-dC), 37 C, 20 min, DNA 1-5 nM
T1 sequence: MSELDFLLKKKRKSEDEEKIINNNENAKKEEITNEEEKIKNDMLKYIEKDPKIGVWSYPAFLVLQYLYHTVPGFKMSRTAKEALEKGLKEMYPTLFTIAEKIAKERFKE

[2] = test system: T1, SegB (SegBSs) (Saccharolobus (Sulfolobus) solfataricus P2), ORF:2e81311c; assay: EMSA; conditions: EMSA and footprint: 10 mM Tris-HCl pH 7.5, 50 mM KCl, 1 mM DTT, 5 mM MgCl2, 2.5% glycerol, 0.05% NP-40, 1 ug poly(dI-dC), 37 C, 20 min, DNA 1-5 nM
[3] = test system: T1, SegB (SegBSs) (Saccharolobus (Sulfolobus) solfataricus P2), ORF:2e81311c; assay: AFM; conditions: EMSA and footprint: 10 mM Tris-HCl pH 7.5, 50 mM KCl, 1 mM DTT, 5 mM MgCl2, 2.5% glycerol, 0.05% NP-40, 1 ug poly(dI-dC), 37 C, 20 min, DNA 1-5 nM
[4] = molecular target: SegB (Saccharolobus solfataricus) (S. solfataricus); assay: MST; SegB labelled with NT-647 at 304 nM final; unlabelled SegA serially diluted 1:1 over fifteen tubes; 10 mM Tris-HCl pH 7.4, 100 mM NaCl, 0.05% Tween 20; 20% LED power, 40% MST power
[5] = molecular target: T2, SegB (SegBSa) (Sulfolobus acidocaldarius, UniProt Q4JC57 1-151); assay: EMSA; EMSA and footprint: 10 mM Tris-HCl pH 7.5, 50 mM KCl, 1 mM DTT, 5 mM MgCl2, 2.5% glycerol, 0.05% NP-40, 1 ug poly(dI-dC), 37 C, 20 min; DNA 1-5 nM, SegB 0-1000; conditions: protein: recombinant; (pET22b NdeI/XhoI); chain copies: 2; label: 5' biotin on strand 1; blunt
T2 sequence: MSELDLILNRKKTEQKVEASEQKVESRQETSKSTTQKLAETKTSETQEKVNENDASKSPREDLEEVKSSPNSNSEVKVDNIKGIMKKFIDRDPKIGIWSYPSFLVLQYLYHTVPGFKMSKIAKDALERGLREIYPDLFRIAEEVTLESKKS

Molecule: GCATCTATGGCATCTGAATTGGGTATATAACCATATTCTACTTCTATTCCCATATCTTCATCACTAACGTAGAGATCAAGTAGTTTTCCTTTCTTCTCATACTCCACGAATACTCTATAGCCTAGACTCTTGAAGTAAGCAGATAATATTAATTGTAGACTGGAGTGGTTAATATTTGTGAATCCTAATTCATAAAAATC (double strand) [peak B-5 fragment]
- binding [1]: binds
- binding [2]: binds

Molecule: AGTAAGATAAATTTACTGAAGTCGTTGTTTTGCCTACTCCTCCTTTCTGATTTATTACTGTGACTATCATGTCTAGACTCTTCTATCTATAACGTTTAATAAGGAATTCTACATGATAATACTGACGAGTCCACCATATTATAATGATAATATTTATATGCTAGATTTTTAAAAAGTATAAGTATGTTTGAGAAGCTCTATAGTGCAATAATTTATTCTGATGAATTTAAAAAAATACTATTGGGAAGAGGTGTAGATGACTTAGAGATAGCTTCAGCCTACATAGCGT (double strand) [289 bp segAB upstream fragment (sites 1, 2, 3)]
- binding [3]: binds

Molecule: CTCAGCTGTCGGTAATACGATTTAGAAAGGATGAAATCGCTTATTCAATTTACTCTAATAAGCGACTAGAGTCTATAAGAAACACTCTAGAGTATTCTACCATAGAGGGAGAAGGCTTATTCAATGGATGCATTCTATGCGGTAAATGTGTTAGTGTTTGCCCTTACGGTAAACAAACTAATGACGTATTCCATACTCCT (double strand) [peak B-3 fragment]
- binding [1]: binds
- binding [2]: binds

Molecule: GAATGTCACAAGGTTCTTTTCCTATATACTTAAAACAAGAGAAAAGTAGAGAAATATTCTATTATACTCTCTTTTTCCTAAATTTTAATCTTAAACTTAAGGGAAGTAGAGTCTAGACTCACGTTAGGGTATGAAATTATCTCATCCTAATTTTTATTTGGCATAACGCTAATATGAAAAACATAAATAGTTAGAGTGTT (double strand) [peak D fragment]
- binding [1]: binds
- binding [2]: binds

Molecule: GCTCGTAATTGAGGCCAAAATTCACAAAAATGATTACCTACAGACTCTAGAGTACTCTAAATATTTCAAGTACGGTATGGCAGTATTTCCATTTACTGGAGAGTGTAGAGTACCTAAAGGTTGGATTTGTATATTTAACACCACAAAGGATCAGTCTAGATTCTACTCTCTTCTTGAAGATTTATTATCTAGAGTTAAGT (double strand) [peak B-6 fragment]
- binding [1]: binds
- binding [2]: binds

Molecule: SegA (Saccharolobus solfataricus) (natural protein)
- Kd [4]: 46 nM

B1: saci0204(-47) 50 bp oligonucleotide (dsDNA)
DNA 1: TTATGAGAAGAATCTGAAATAAAGGGTATAGAGTTAAGAGTCTATATATG
DNA 2: CATATATAGACTCTTAACTCTATACCCTTTATTTCAGATTCTTCTCATAA
- binding result [5]: binds
